This note sets out measurements from US20190367606A1 (CENTRE FOR DRUG RESEARCH AND DEVELOPMENT, published 2019).

In assay [1] the target is T1, human podocalyxin (human, UniProt O00592 23-558).
T1 construct: also called hPodo; hPodocalyxin
T1 sequence: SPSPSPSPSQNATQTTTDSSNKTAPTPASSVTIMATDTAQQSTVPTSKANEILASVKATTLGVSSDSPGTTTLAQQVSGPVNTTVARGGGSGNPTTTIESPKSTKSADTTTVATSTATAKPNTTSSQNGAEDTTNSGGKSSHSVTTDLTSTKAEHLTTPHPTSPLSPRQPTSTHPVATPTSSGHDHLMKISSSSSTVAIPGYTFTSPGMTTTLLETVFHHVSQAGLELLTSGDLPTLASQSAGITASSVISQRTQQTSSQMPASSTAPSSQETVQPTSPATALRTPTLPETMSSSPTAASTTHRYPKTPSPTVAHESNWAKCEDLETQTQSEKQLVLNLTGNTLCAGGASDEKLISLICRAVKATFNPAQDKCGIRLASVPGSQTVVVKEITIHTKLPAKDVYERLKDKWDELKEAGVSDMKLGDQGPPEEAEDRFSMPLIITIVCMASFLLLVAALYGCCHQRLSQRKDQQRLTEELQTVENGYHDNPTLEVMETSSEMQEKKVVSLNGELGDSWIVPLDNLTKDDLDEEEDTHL
Briefly: flow cytometry, control antibody, A172 cells. In general terms: In flow cytometry, cells or beads pass a laser one at a time.

For assay [2], the target named is T1, human podocalyxin. Briefly: flow cytometry, control antibody, MCF7 cells.
Assay [3] has as its target T1, human podocalyxin. Briefly: flow cytometry, control antibody, CaOV3 cells.
The target of assay [4] is T1, human podocalyxin. Briefly: flow cytometry, control antibody, HUVEC cells.
Assay [5] concerns the target T1, human podocalyxin. Put plainly: flow cytometry, control antibody, T47-D cells.
In assay [6] the target is T1, human podocalyxin. Briefly: flow cytometry, control antibody, OVCAR3 cells.
Assay [7] has as its target T1, human podocalyxin. Briefly: flow cytometry, control antibody, 293 HEK cells.
The target of assay [8] is T1, human podocalyxin. Briefly: flow cytometry, control antibody, OVCAR10 cells.
Assay [9] concerns the target T1, human podocalyxin. Put plainly: flow cytometry, control antibody, MDA-MB-231 cells.
The target of assay [10] is T1, human podocalyxin. Put plainly: flow cytometry, well H03 (right column, cell type not labelled: MDA-MB-231 or MDA-MB-231/hPodo); vertical gate at FL4-H about 10^3.2; the gate differs from that of the Ab-1 panels.
In assay [11] the target is T1, human podocalyxin. Briefly: flow cytometry, well H01 (left column, cell type not labelled: MDA-MB-231 or MDA-MB-231/hPodo); vertical gate at FL4-H about 10^3.2, cutting the right edge of the control population; the gate differs from that of the Ab-1 panels.
The target in assay [12] is T1, human podocalyxin. Briefly: cross competition FACS, MDA-MB-231 cells; FACS Buffer row (no unlabelled antibody); B-mlgG1 5 ug/mL (control).
Assay [13] concerns the target T1, human podocalyxin. Put plainly: cross competition FACS, MDA-MB-231 cells; row antibody (isotype control) unlabelled 25 ug/mL first; competitor (detected): B-3G2.2 5 ug/mL.
In assay [14] the target is T1, human podocalyxin. Put plainly: cross competition FACS, MDA-MB-231 cells; row antibody (isotype control) unlabelled 25 ug/mL first; competitor (detected): B-mlgG1 5 ug/mL (control).
Assay [15] deals with T1, human podocalyxin. Put plainly: cross competition FACS, MDA-MB-231 cells; row antibody (isotype control) unlabelled 25 ug/mL first; competitor (detected): B-Ova 12 5 ug/mL (control).
The target in assay [16] is T1, human podocalyxin. Briefly: cross competition FACS, MDA-MB-231 cells; row antibody (isotype control) unlabelled 25 ug/mL first; competitor (detected): biotinylated Rb/Hu Podo83 5 ug/mL.
For assay [17], the target named is T1, human podocalyxin. Put plainly: flow cytometry, control antibody, SKOV3 cells.
Assay [18] has as its target T1, human podocalyxin. Put plainly: flow cytometry, control, 1:5, MDA-MB-231 cells.
Assay [19] has as its target T1, human podocalyxin. Put plainly: flow cytometry, control, Neat, MDA-MB-231 cells.
Assay [20] addresses T1, human podocalyxin. Put plainly: flow cytometry, control, 1:125, MDA-MB-231 cells.
Assay [21] has as its target T1, human podocalyxin. Put plainly: flow cytometry, control, 2:15 (so in the source), MDA-MB-231 cells.
Assay [22] has as its target T1, human podocalyxin. Put plainly: flow cytometry, control, 1:5, hPodo/MDA-MB-231 transient transfectants.
Assay [23] deals with T1, human podocalyxin. Put plainly: flow cytometry, control, Neat, hPodo/MDA-MB-231 transient transfectants.
Assay [24] addresses T1, human podocalyxin. Briefly: flow cytometry, control, 1:125, hPodo/MDA-MB-231 transient transfectants.
The target in assay [25] is T1, human podocalyxin. Put plainly: flow cytometry, control, 2:15 (so in the source), hPodo/MDA-MB-231 transient transfectants.

Consider Control Rb/HuIgG1 (antibody), for which the Live cell GeoMean FL (geometric mean fluorescence units) was 644 with human podocalyxin [1]; 657 in the assay with human podocalyxin [2]; 767 with human podocalyxin [3]; 489 in the assay with human podocalyxin [4]; 667 with human podocalyxin [5]; 629 in the assay with human podocalyxin [6]. Besides, the Live cell GeoMean FL (geometric mean fluorescence units) with human podocalyxin [7] is 446; with human podocalyxin [8], 653; with human podocalyxin [9], 477. The results for the Q2-LR % of gated cells (FL4-H above the gate) with human podocalyxin [10] and in the assay with human podocalyxin [11] were 3.5% and 17.2%, respectively.
Take mlgG1 (antibody): the FACS signal of the biotinylated antibody with human podocalyxin [12] is 419. Also, the FACS signal of the biotinylated antibody named under assay with human podocalyxin [13] worked out at 26600; with human podocalyxin [14], 414; with human podocalyxin [15], 458; in the assay with human podocalyxin [16] it was 124000.
MsIgG2a (antibody): the Live cell GeoMean FL (geometric mean fluorescence units) was 797 in the assay with human podocalyxin [1]; 1130 with human podocalyxin [2]; 892 with human podocalyxin [3]; 484 with human podocalyxin [4]; 485 with human podocalyxin [17]; 787 with human podocalyxin [5]. In addition, the Live cell GeoMean FL (geometric mean fluorescence units) in the assay with human podocalyxin [6] turned out to be 708; in the assay with human podocalyxin [7], 556; with human podocalyxin [8] it was 618; with human podocalyxin [9], 478.
For Rb IgG (antibody), the flow cytometry fluorescence (name not given) was found to be 467 in the assay with human podocalyxin [18]; 574 with human podocalyxin [19]; 431 in the assay with human podocalyxin [20]; 438 with human podocalyxin [21]; 660 in the assay with human podocalyxin [22]; 762 in the assay with human podocalyxin [23]. For the same substance, the figures for the flow cytometry fluorescence (name not given) in the assay with human podocalyxin [24] and with human podocalyxin [25] were 645 and 617, respectively.
